Here are results for 35 sequences from a protein production outcome set (Wang et al. 2014).

The data set in a line: label from the status in PepcDB records.
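Further: failed if final PepcDB status was selected cloned or expressed and not failed if soluble or beyond.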

As for “TMLRVRSRDGLERVSVDGPHITVSQLKTLIQDQLQIPIHNQTLSTNRNLLLAKSPSDFLAFTDMADPNLRISSLNLAHGSMVYLAYEGERTIRG”, the protein production result was “not failed”.

On to “TNDEETIQQQILALSADKRNFLRDPPAGVQFNFDFDQMYPVALVMLQEDELLSKMRFALVPKLVKEEVFWRNYFYRVSLIKQSAQLT”, for which the protein production result is on record as “not failed”. The value for “TNNGKQFIHNDTMEGGKLVCREIYAMNDAASGILNPVKMYKYSYDTDQQKTVKSTYAWNIFKNTWETESRTVISRYETETSVEYSVWNKEKGSFDLSKKYIYITDNNNQLIAQYAYKMNSRTNQWILEKDALTPIYENIYATTR” was “not failed”. The value for “TQIQNRTRRAKRALAARGLTEAVTWSFISKPFAEAFGGGQPELALANPIASDLSDMRPSLLPGLIAAAQANADRGSPDLALFEVGQVFKGDRPQDQFMAASGVRRGVASSAGLGRHWSGSAQATALDAKADAFAVLAAAGAPMAGLQIATNKLPAWLHPGRSGAIQIGPQNVLGYFGELHPRVLEQLGADGPLVAFEVILEKIP” was “not failed”. The value for “TQVADNEYLVQGRMLIDEFNEVFETDLHMSDVDTMAGYLITALGTIPDEGEKPSFEVGNIKLTAEEMEGTRLLVLRVHFYDEETVDEEPEENRRFFRKEMEDDEPRR” was “not failed”.

Turning to “TSTFYELFPKTFPKKLPIWTIDQSRLRKEYRQLQAQHHPDMAQQGSEQSSTLNQAYHTLKDPLRRSQYMLKLLRNI”, the protein production entry was “failed”.

As to “TTESLYAFSRKLAGTAALDDVLWATAYQIALMLKVRVVLLLPEQGRIAVKAGYPPEDQLDPADLAAANWAWENDRVAGRGSDTLPGAKRLFLPMRTGRGPIGVIGIDDDRAGALLTPDQRRLLDALTDQGALAIERVHLVEDMDRVKR”, the protein production result is recorded as “failed”. The value for “TTHKFEHPLNEKTRIYLRVESLLRQAHLASGFADNHQYQLFFRALFDMVEIFEQIQLKSELAKDLEKQRLSYRHWLNVEGVDQEALNSLLNEIDVVHSQLMGAERFGQALKEDRFLSSIRQRFNLPGGSCCFDLPALHYWLHLPIERKKHDANQWQKSLKPLSDALTLWLKLARETGHFKAQIARAGFFQSDADEANILRLHIPMKYGVYPMISGHKNRFAIKFMAFENGQACSQDVEFELAVC” was “not failed”.

In the case of “TVGILWVNWDSHVRYANRAAEEMLGYPAGGVIDRPLIDFEPNLHMDRWLNLWKRARASEEGVQSFETQCVRADGSILPADVSLSFLRFRDSEYLVVYLNDV”, the protein production result is “failed”. The value for “TVVNDPSCESVVTTPQHSLRDANSPAGLLSIAEETLAEFLSKATGTAVDWVQMPGMKPGPDSVGIFAISQRCNGVAARACGLVSLEPMKIAEILKDRPSWFRDCRSLEVFTMFPAGNGGTIELVYMQTYAPTTLAPARDFWTLRYTTSLDNGSFVVCERSLSGSGAGPNAASASQFVRAEMLSSGYLIRPCDGGGSIIHIVDHLNLEAWSVPDVLRPLYESSKVVAQKMTISALRYIRQLAQESNGEVVYGLGRQPAVLRTFSQRLSRGFNDAVNGFGDDGWSTMHCDGAEDIIVAINSTKHLTNISNSV” was “not failed”. In the case of “VAASWREQFIRAEQTHWDAVTETASETYWEGGVLSDVTALAPDPATLFISNSMPIRDMDRFGGPRDADLTVLGNRGASGIDGITSTALGAGSATSDPLVLVTGDLAYYHDMNGLLALGRCAVDATVVLLNNDGGGIFHMLPIEDHPTFEDQFRTPHGLDFEPTEALYSLQFERVADRRQFRERFAESVQTDGTQVIEVRFDAGDSHAVRDQLTE”, the protein production result is on record as “failed”. In the case of “VDEKALKHITEMGFSKEASRQALMDNGNNLEAALNVLLTSNKQKPVMGPP”, the protein production entry is “not failed”.

For “VDICNHALLVGYGRVGSLLGEKLLASDIPLVVIETSRTRVDELRERGVRAVLGNAANEEIMQLAHLECAKWLILTIPNGYEAGEIVASARAKNPDIEIIARAHYDDEVAYITERGANQVVMGEREIARTMLELLETPPAGEVVTR”, the protein production entry is given as “not failed”. The value for “VDKVDSREEKITEKFDEPATYIEDAEQLEGEETLVTPGTQGERTVTRKIVTVNGVETANEVVNEEIITPGVAATIKRGAKK” was “failed”; that for “VDQLFFSTTDAQGRIQETNNTFVELSRYTEEELRNAAHNIIRHPFMPGGVFKIMWDKLQRGETFAGYVRNLAHSGETYDVFATVTPIPGTHD” was “failed”. The value for “VDRDYLQSEYGVLKAGQCYKVVRSFRDYRNINYERGDVMRFLGSNFVPYESGLSLFFDKNGSERQIMLCVRPEFQMEIAHHLDSYFCKLDDN” was “not failed”; that for “VDWTDAERSAIVGLWGKISVDEIGPQALARLLIVSPWTQRHFSTFGNLSTPAAIMGNPAVAKHGKTVMHGLDRAVQNLDDIKNTYATLSVMHSEKLHVDPDNFRLLADCITVCVAAKLGPAVFSADTQEAFQKFLAVVVSALGRQYH” was “not failed”; that for “VELLQVDADLQAEIVGKYNADLQKAVQIEEKKAREIATEAVKEHVTAEYEERYAEHEEHDRIMRDVAEILEQMEHAEVRRLITEDKVRPD” was “not failed”. Consider “VFGVKEWECEVLSNKNVSTFIKEFVVKLPEGETMNFKSGSYAQIKIPKYNIRYADYDIQDRFRGDWDKMDAWSLTCKNEEETVRAYSMANYPAEGNIITLNVRIATPPFDRAANKWKAGIKPGISSSYIFSLKPGDKVMMSGPYGDFHIQDTDAEMLYIGGGAGMAPLRAQILHLFRTLKTGRKVSYWYGARSKNEIFYEEDFREIEREFPNFKFHIALSDPQPEDNWTGYVGFIHQVIYDNYLKDHDAPEDIEYYMCGPGPMANAVKGMLENLGVPRNMLFFDDFG”, for which the protein production result is “not failed”. For “VGFAPELYCGLENCYDVLEVNREEFDKQKLAKAYRALARKHHPDRVKNKEEKLLAEERFRVIATAYETLKDDEAKTNYDYYLDHPDQRFYNYYQY” the value was “not failed”; for “VGFLMFGNLLRECGVLDRLSQTAQNELVNIISILLGLTISIKMQADLFLNVQTL”, “failed”; for “VGGFTWDLSANLSSVANKIISLPYNGIENNRVGGYEVAVGKGTNATKWIAGRQEGGKLGEMVAYKQNHIFKSWDDVKEHANMMIDEVANLYGPGLASEYAGKEGWKPIEPGDVCWEDINGDNKINGLDREVVGNIFPKVTGGFSSTLSWKGISLYARFDYALGHTLYNDLAARTLGQYQGAFNIITEVKDMWSEDNPNSDLPAFYYADQLAKKNITRSNNASASRHNNSSRLYEKADYLALRELTLSWDLPKAWTSKAFIQNASVYVTGQNLFYVTGYTGTSPEPVLTNSDNNENLYGVDQGRYPTPRTVLFGLSVTF”, “failed”. Consider “VGKEKAEVELLQVDVDLQADIVAKYNAQLQKAVQVEEKKAREAATEAVKEMVKAEYEERYAEDENLATIMRDVAEILEQMEHAEVRRLITEDKIRPDGRKIDEIRP”, for which the protein production result is “failed”.

Turning to “VHVLIRPLQAQDREREKAFIERLSPESRHFRFLCQLREPGEAMLDQLMKVDQDRQAAYVALAHVDGELQEVGISRYATASGKDECECAVTVMDSWQHHGLGRLLLKHLIDHARAKGLRQMYSVDAAANQAMRELAKAAGFTT”, the protein production result is recorded as “failed”.

As to “VKDVRKIQFMPMERHNTELLSLVDNLPDPVFAIDLKGAVDMANMSALSLLGLHKQEVIGTQIGALLPSVRFSRWSEGVNARTRENLVIDGLDYILELMPVY”, the protein production entry was “failed”. For “VKRFWENVGKPNDTTDGRGTTSLAMTPISQTPGLLAEAMVDLGAIEHNVRVLREHAGHAQLMAVVKADGYGHGATRVAQTALGAGAAELGVATVDEALALRADGITAPVLAWLHPPGIDFGPALLADVQVAVSSLRQLDELLHAVRRTGRTATVTVKVDTGLNRNGVGPAQFPAMLTALRQAMAEDAVRLRGLMSHMVYADKPDDSINDVQAQRFTAFLAQAREQGVRFEVAHLSNSSATMARPDLTFDLVRPGIAVYGLSPVPALGDMGLVPAMTVKCAVALVKSIRAGEGVSYGHTWIAPRDTNLALLPIGYADGVFRSLGGRLEVLINGRRCPGVGRICMDQFMVDLGPGPLDVAEGDEAILFGPGIRGEPTAQDWADLVGTIHYEVVTSPRGRITRTYREAENR” the value was “not failed”. As to “VKRKGVEVIIALDISNSMLAQDVQPSRLEKAKRLISRLVDELDNDKVGMIVFAGDAFTQLPITSDYISAKMFLESISPSLISKQGTAIGEAINLATRSFTPQEGVGRAIIVITDGENHEGGAVEAAKAAAEKGIQVSVLGVGMPEGAPIPVEGTNDYRRDREGNVIVTRLNEGMCQEIAKDGKGIYVRVDNSNSAQKAISQEISKMAKSDVE”, the protein production entry is “not failed”. For “VLAPVVPGKALEFPQDFGAHNDFRIEWWYVTGWLETPTGKPLGFQITFFRTATEIDRDNPSHFAPDQLIIAHVALSDPAIGKLQHDQKIARAGFDLAYARTGNTDVKLDDWIFVRETDGRYRTRIEAEDFTLTFILTPSQPLMLQGENGFSRKGPGAPQASYYYSEPHLQVSGIINRQGEDIPVTGTAWLDREWSSEYLDPNAAGWDWISANLDDGSALMAFQIRGKDDSKIWAYAALRDASGHTRLFTPDQVSFHPIRTWRSARTQAVYPVATRVLTGETEWQITPLMDDQELDSRASAGAVYWEGAVTFTRDGQPAGRGYMELTGYVRPLSM”, the protein production entry is reported as “not failed”. For “VPGILMCEIFIRANQRSYSVQARSLRLHGVATSVRLEQLFWDVLEEIAARDGMRVTQLIERLYDELVQYRGEAANFTSFLRVCCLRYQVLQAEGRIPADATVPIRSLDAQAVLRGLPANLYDSR” the value was “not failed”; for “VPKIVDHDERRRALADAVLALIAREGISAVTTRAVAEESGWSTGVLNHYFGSRHELLLAALRRAGDIQGDRYRTILDEEGAGPIEKLRNITASILPLDERRLAMTRVFLFFYAEGAAEETARGEIAAFLARWRGVVRESVVAAQREGTVSTDLDADAVTVALVALTDGLALQAILDPVVMKAISAEDAAARCVDAAVRRTTEEAGAVGR”, “not failed”. The value for “VQFSLLHSKFHLCSVATRALLLSTYIKFINLFPETKATIQGVLRAGSQLRNADVELQQRAVEYLTLSSVASTDVLATVLEEMPPFPERESSILAKLKRKKGPGAGSALDDGRRDPSSNDINGGME” was “failed”; that for “VQLVRLLEEKIKSLQIEIENLRKELNYYKAEMEKMLSPPLIEAVVLDVLPDGRVLVRSSSGPNLVVNIASHIDQKLIKPGISVALNQRGSTILEVLPQKEDPIVKTMEIIERPN” was “not failed”.

Regarding “VRISRPDVLLNIHIAQTTCTLSLDSSGESLHRRGYRQEAVEAPLNEVLAAGMILMTGWKGECDLIDPMCGSGTIPIEAALIARNIAPGVFRKEFAFEKWGDFDQNLFDRIYNDDSQEREFTHKIYGYDNNPKANEIATHNVKAAGVSKDIILKLQPFQQFEQPAEKSIIITNPPYGERISTNDLLGLYNMIGERLKHAFVGNDAWILSYREECFDQIGLKPSVKTPLFNGPLECEFRKYQIFDGKY”, the protein production entry is reported as “failed”. Regarding “VRRIKLGSQGLEVSAQGLGCMGLSAFYGTPKPETEAIALIHHAIHSGVTFLDTSDIYGPETNELLLSKALKDGVREKVELATKYGIRYAEGKVEFKGDPAYVRAACEASLMRVDVACIDLYYQHRIDTRVPIEITIGELKKLVEEGKIKYIGLSEASASTIRRAHAVHPITALQIEWSLWSRDVEEDIIPTCRELGIGIVAYSPLGRGFFASGPKLVENLDNNDVRKTLPRFQQENLDHNKILFEKVSAMSEKKGCTPAQLALAWVHHQGDDVCPIPGTTKIENLNQNIGALSVKLTPEEMSELESLAQP”, the protein production result is “failed”. The value for “VRSQVLKYMVPGARVIRGLDWKWRDQDGSPQGEGTVTGELHNGWIDVTWDAGGSNSYRMGAEGKFDLKLAPGY” was “not failed”.
